Measurements reported in the Human Domainome abundance scans (Beltran et al. 2025).
± gives the uncertainty stated by the source.

B1: Nuclear receptor subfamily 1 group D member 2, residues 103 to 171; numbered along this chain, Q14995 (parent)
chain: CKVCGDVASGFHYGVHACEGCKGFFRRSIQQNIQYKKCLKNENCSIMRMNRNRCQQCRFKKCLSVGMSR

Variants of: B1
Assay: abundance fitness (aPCA) (normalised: wild type 0, dead -1); higher = more abundant; growth selection in yeast, the domain comes from the species named
Settings: Homo sapiens

Question: Which abundance fitness does the source give for CKVCGDVASGFHYGVHACEGCKGFFRRSIQQNIQYKKCLKNENCSEMRMNRNRCQQCRFKKCLSVGMSR here?
Answer: -0.437 ± 0.24

Question: For CKVCGDVASGFHYGVHACEGCKGFFRRSIQQNIQYKKCLKNENCSAMRMNRNRCQQCRFKKCLSVGMSR, which abundance fitness is on record?
Answer: -0.041 ± 0.13

Question: With CKVCGDVASGFHYGVHACEGCKGFFRRSIQQNIQYKKCLKNHNCSIMRMNRNRCQQCRFKKCLSVGMSR as the variant, how does the abundance fitness read?
Answer: -0.231 ± 0.19

Question: With CKVCGDVASGFHYGVHACEGCKGFFRRSIQQNIQYKKCLKNCNCSIMRMNRNRCQQCRFKKCLSVGMSR as the variant, how does the abundance fitness read?
Answer: -0.592 ± 0.26

Question: Which abundance fitness does the source give for CKVCGDVASGFHYGVHACEGCKGFFRRSIQQNIQYKKCLKNKNCSIMRMNRNRCQQCRFKKCLSVGMSR here?
Answer: -0.109 ± 0.14

Question: With CKVCGDVASGFHYGVHACEGCKGFFRRSIQQNIQYKKCLKNQNCSIMRMNRNRCQQCRFKKCLSVGMSR as the variant, how does the abundance fitness read?
Answer: -0.23 ± 0.19

Question: For CKVCGDVASGFHYGVHACEGCKGFFRRSIQQNIQYKKCLKNYNCSIMRMNRNRCQQCRFKKCLSVGMSR, which abundance fitness is on record?
Answer: -0.674 ± 0.31

Question: Which abundance fitness does the source give for CKVCGDVASGFHYGVHACEGCKGFFRRSIQQNIQYKKCLKNNNCSIMRMNRNRCQQCRFKKCLSVGMSR here?
Answer: -0.004 ± 0.12

Question: For CKVCGDVASGFHYGVHACEGCKGFFRRSIQQNIQYKKCLKNMNCSIMRMNRNRCQQCRFKKCLSVGMSR, which abundance fitness is on record?
Answer: -0.008 ± 0.15

Question: Which abundance fitness does the source give for CKVCGDVASGFHYGVHACEGCKGFFRRSIQQNIQYKKCLKNDNCSIMRMNRNRCQQCRFKKCLSVGMSR here?
Answer: -0.025 ± 0.1

Question: With CKVCGDVASGFHYGVHACEGCKGFFRRSIQQNIQYKKCLKNLNCSIMRMNRNRCQQCRFKKCLSVGMSR as the variant, how does the abundance fitness read?
Answer: -0.847 ± 0.15

Question: For CKVCGDVASGFHYGVHACEGCKGFFRRSIQQNIQYKKCLKNVNCSIMRMNRNRCQQCRFKKCLSVGMSR, which abundance fitness is on record?
Answer: -0.798 ± 0.14

Question: For CKVCGDVASGFHYGVHACEGCKGFFRRSIQQNIQYKKCLKNSNCSIMRMNRNRCQQCRFKKCLSVGMSR, which abundance fitness is on record?
Answer: -0.172 ± 0.076

Question: For CKVCGDVASGFHYGVHACEGCKGFFRRSIQQNIQYKKCLKNFNCSIMRMNRNRCQQCRFKKCLSVGMSR, which abundance fitness is on record?
Answer: -0.809 ± 0.29

Question: Which abundance fitness does the source give for CKVCGDVASGFHYGVHACEGCKGFFRRSIQQNIQYKKCLKNRNCSIMRMNRNRCQQCRFKKCLSVGMSR here?
Answer: -0.639 ± 0.11

Question: For CKVCGDVASGFHYGVHACEGCKGFFRRSIQQNIQYKKCLKNGNCSIMRMNRNRCQQCRFKKCLSVGMSR, which abundance fitness is on record?
Answer: 0.13 ± 0.063

Question: With CKVCGDVASGFHYGVHACEGCKGFFRRSIQQNIQYKKCLKNWNCSIMRMNRNRCQQCRFKKCLSVGMSR as the variant, how does the abundance fitness read?
Answer: -0.642 ± 0.25

Question: With CKVCGDVASGFHYGVHACEGCKGFFRRSIQQNIQYKKCLKNTNCSIMRMNRNRCQQCRFKKCLSVGMSR as the variant, how does the abundance fitness read?
Answer: -0.671 ± 0.19

Question: Which abundance fitness does the source give for CKVCGDVASGFHYGVHACEGCKGFFRRSIQQNIQYKKCLKNEDCSIMRMNRNRCQQCRFKKCLSVGMSR here?
Answer: -0.222 ± 0.16

Question: For CKVCGDVASGFHYGVHACEGCKGFFRRSIQQNIQYKKCLKNESCSIMRMNRNRCQQCRFKKCLSVGMSR, which abundance fitness is on record?
Answer: -0.317 ± 0.094

Question: With CKVCGDVASGFHYGVHACEGCKGFFRRSIQQNIQYKKCLKNEACSIMRMNRNRCQQCRFKKCLSVGMSR as the variant, how does the abundance fitness read?
Answer: 0.01 ± 0.085

Question: Which abundance fitness does the source give for CKVCGDVASGFHYGVHACEGCKGFFRRSIQQNIQYKKCLKNELCSIMRMNRNRCQQCRFKKCLSVGMSR here?
Answer: -0.115 ± 0.078

Question: For CKVCGDVASGFHYGVHACEGCKGFFRRSIQQNIQYKKCLKNEECSIMRMNRNRCQQCRFKKCLSVGMSR, which abundance fitness is on record?
Answer: 0.017 ± 0.086

Question: Which abundance fitness does the source give for CKVCGDVASGFHYGVHACEGCKGFFRRSIQQNIQYKKCLKNEWCSIMRMNRNRCQQCRFKKCLSVGMSR here?
Answer: -0.79 ± 0.31

Question: With CKVCGDVASGFHYGVHACEGCKGFFRRSIQQNIQYKKCLKNEVCSIMRMNRNRCQQCRFKKCLSVGMSR as the variant, how does the abundance fitness read?
Answer: -0.181 ± 0.091

Question: For CKVCGDVASGFHYGVHACEGCKGFFRRSIQQNIQYKKCLKNEHCSIMRMNRNRCQQCRFKKCLSVGMSR, which abundance fitness is on record?
Answer: -0.37 ± 0.14

Question: For CKVCGDVASGFHYGVHACEGCKGFFRRSIQQNIQYKKCLKNERCSIMRMNRNRCQQCRFKKCLSVGMSR, which abundance fitness is on record?
Answer: -0.12 ± 0.068

Question: With CKVCGDVASGFHYGVHACEGCKGFFRRSIQQNIQYKKCLKNECCSIMRMNRNRCQQCRFKKCLSVGMSR as the variant, how does the abundance fitness read?
Answer: -0.083 ± 0.093

Question: With CKVCGDVASGFHYGVHACEGCKGFFRRSIQQNIQYKKCLKNEKCSIMRMNRNRCQQCRFKKCLSVGMSR as the variant, how does the abundance fitness read?
Answer: -0.231 ± 0.12

Question: With CKVCGDVASGFHYGVHACEGCKGFFRRSIQQNIQYKKCLKNETCSIMRMNRNRCQQCRFKKCLSVGMSR as the variant, how does the abundance fitness read?
Answer: -0.215 ± 0.12

Question: For CKVCGDVASGFHYGVHACEGCKGFFRRSIQQNIQYKKCLKNEFCSIMRMNRNRCQQCRFKKCLSVGMSR, which abundance fitness is on record?
Answer: -0.361 ± 0.19

Question: For CKVCGDVASGFHYGVHACEGCKGFFRRSIQQNIQYKKCLKNEGCSIMRMNRNRCQQCRFKKCLSVGMSR, which abundance fitness is on record?
Answer: -0.011 ± 0.071

Question: For CKVCGDVASGFHYGVHACEGCKGFFRRSIQQNIQYKKCLKNEQCSIMRMNRNRCQQCRFKKCLSVGMSR, which abundance fitness is on record?
Answer: -0.061 ± 0.12

Question: For CKVCGDVASGFHYGVHACEGCKGFFRRSIQQNIQYKKCLKNEMCSIMRMNRNRCQQCRFKKCLSVGMSR, which abundance fitness is on record?
Answer: -0.373 ± 0.15

Question: For CKVCGDVASGFHYGVHACEGCKGFFRRSIQQNIQYKKCLKNEPCSIMRMNRNRCQQCRFKKCLSVGMSR, which abundance fitness is on record?
Answer: -0.472 ± 0.15

Question: Which abundance fitness does the source give for CKVCGDVASGFHYGVHACEGCKGFFRRSIQQNIQYKKCLPNENCSIMRMNRNRCQQCRFKKCLSVGMSR here?
Answer: -0.532 ± 0.13

Question: Which abundance fitness does the source give for CKVCGDVASGFHYGVHACEGCKGFFRRSIQQNIQYKKCLQNENCSIMRMNRNRCQQCRFKKCLSVGMSR here?
Answer: 0.206 ± 0.081

Question: Which abundance fitness does the source give for CKVCGDVASGFHYGVHACEGCKGFFRRSIQQNIQYKKCLVNENCSIMRMNRNRCQQCRFKKCLSVGMSR here?
Answer: -0.273 ± 0.057

Question: With CKVCGDVASGFHYGVHACEGCKGFFRRSIQQNIQYKKCLLNENCSIMRMNRNRCQQCRFKKCLSVGMSR as the variant, how does the abundance fitness read?
Answer: -0.042 ± 0.051
